Legend:
[1] = molecular target: T1, NaPi2b expressed on IGROV-1 cells (Homo sapiens, UniProt O95436); test: Cellular binding of bivalent antibodies to IGROV-1 cells by flow cytometry (Example 13); conditions: IGROV-1, 24 hours at 4° C., NB = no cellular binding
T1 construct: IGROV-1 cells express endogenous NaPi2b at a high level; endogenous in cells; host or cells: IGROV-1
T1 sequence (O95436 1-690): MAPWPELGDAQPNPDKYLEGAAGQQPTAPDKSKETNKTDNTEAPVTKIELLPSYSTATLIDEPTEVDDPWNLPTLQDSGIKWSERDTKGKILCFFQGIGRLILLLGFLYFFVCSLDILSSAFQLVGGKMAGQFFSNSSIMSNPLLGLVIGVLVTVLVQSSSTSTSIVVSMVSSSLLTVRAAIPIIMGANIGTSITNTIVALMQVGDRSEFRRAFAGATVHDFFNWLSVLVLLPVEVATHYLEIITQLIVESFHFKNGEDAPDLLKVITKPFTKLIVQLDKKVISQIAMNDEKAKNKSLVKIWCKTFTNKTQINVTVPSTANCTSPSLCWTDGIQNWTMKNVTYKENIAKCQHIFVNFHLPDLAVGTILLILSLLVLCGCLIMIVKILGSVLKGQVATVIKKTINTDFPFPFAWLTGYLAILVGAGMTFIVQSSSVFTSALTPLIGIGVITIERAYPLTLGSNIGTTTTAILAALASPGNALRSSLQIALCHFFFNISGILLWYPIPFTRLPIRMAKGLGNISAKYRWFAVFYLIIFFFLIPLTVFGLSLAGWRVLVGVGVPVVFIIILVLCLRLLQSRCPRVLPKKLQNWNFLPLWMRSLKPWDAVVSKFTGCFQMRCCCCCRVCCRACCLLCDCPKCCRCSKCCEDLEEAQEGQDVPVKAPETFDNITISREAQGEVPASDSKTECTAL
Description: IGROV-1 cells express endogenous NaPi2b at a high level.
Briefly, cells were seeded at 50,000 cells/well in conical-bottom 96-well plates and treated with test antibody for 24 hours at 4° C. to prevent internalization. Palivizumab (anti-RSV antibody, v22277) was included as a negative control. […] Following incubation, cells were washed and stained with anti-Human IgG Fc AF647 conjugate (Jackson Immuno Research Labs, West Grove, PA; Cat. No. 109-605-098) at 4° C. for 30 min. Following incubation and washing, fluorescence was detected by flow cytometry on a BD LSRFortessa™ Cell Analyzer (BD Biosciences, Franklin Lake, NJ) with 1,000 minimum events collected per well. The AF647/APC-A GeoMean (fluorescence signal geometric mean, proportional to anti-Human AF647 binding) was calculated for the live cell population using FlowJo™ Version 10.8.1 (BD Biosciences, Franklin Lake, NJ) and plotted for each test antibody using GraphPad Prism Version 9 (GraphPad Software, San Diego, CA).

[2] = molecular target: T2, NaPi2b expressed on HCC-78 cells (Homo sapiens, UniProt O95436); test: Cellular binding of antibody and ADCs to HCC-78 cells by flow cytometry (Example 14)
T2 construct: endogenous in cells; host or cells: HCC-78
T2 sequence (O95436 1-690): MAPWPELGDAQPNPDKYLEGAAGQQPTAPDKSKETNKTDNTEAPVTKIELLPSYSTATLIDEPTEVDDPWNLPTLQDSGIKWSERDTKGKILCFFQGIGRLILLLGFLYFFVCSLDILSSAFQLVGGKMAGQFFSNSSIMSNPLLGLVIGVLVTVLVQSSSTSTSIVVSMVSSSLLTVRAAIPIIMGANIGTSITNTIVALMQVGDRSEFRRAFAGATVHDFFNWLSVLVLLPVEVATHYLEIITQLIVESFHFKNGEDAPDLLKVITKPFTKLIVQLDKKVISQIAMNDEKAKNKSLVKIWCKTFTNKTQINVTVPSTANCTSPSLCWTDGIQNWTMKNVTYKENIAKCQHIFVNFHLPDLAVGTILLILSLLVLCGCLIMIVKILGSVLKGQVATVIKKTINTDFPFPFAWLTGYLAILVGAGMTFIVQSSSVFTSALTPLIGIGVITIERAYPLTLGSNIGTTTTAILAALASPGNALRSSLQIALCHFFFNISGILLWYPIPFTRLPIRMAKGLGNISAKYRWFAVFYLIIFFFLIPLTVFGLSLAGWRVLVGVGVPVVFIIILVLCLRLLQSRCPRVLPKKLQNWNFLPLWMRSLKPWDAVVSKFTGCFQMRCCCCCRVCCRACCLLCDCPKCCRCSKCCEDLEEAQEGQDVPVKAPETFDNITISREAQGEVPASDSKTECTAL
Description: Briefly, HEK293-6e cells were transfected for ˜24 hours to transiently express human NaPi2b, cynomolgus or mouse NaPi2b, at 1 μg of DNA per 1 million cells. Following transfection, 50,000 cells per well were seeded in V-bottom 96-well plates and incubated with 200 nM of primary antibody for 18-24 hours at 4° C. to prevent internalization. Post-incubation, cells were washed and stained with anti-Human IgG Fc AF647 conjugate (Jackson Immuno Research Labs, West Grove, PA, Cat. No. 109-605-098, Lot. No. 124868) at 4° C. for 1 hour. Following staining and washing, fluorescence was detected by flow cytometry on BD LSRFortessa™ Cell Analyzer (BD Biosciences, Franklin Lake, NJ) with 10,000 minimum events collected per well. The AF647/APC-A GeoMean (fluorescence signal geometric mean, proportional to anti-Human AF647 binding) was calculated for the live singlet cell population for each primary antibody using FlowJo™ v8 software (BD Biosciences, Franklin Lake, NJ). The Bmax and Kd of each primary antibody were calculated using GraphPad Prism Version 9 (GraphPad Software, San Diego, CA)
The ability of ADCs to bind to cells expressing NaPi2b was assessed. ADCs of a representative humanized variant antibody, v29456 (H1L2), were prepared by conjugation to DL2 and DL1 as described in Example 11. Binding to endogenous high NaPi2b-expressing cell lines IGROV-1 and HCC-78 was assessed by flow cytometry according to methods described in Example 5.

- Bmax (MFI) [1]: 40,867 MFI
- Curve Hill Slope (h) [1]: 1.1
- Kd ([1]; apparent Kd): 1.1 nM
- Bmax [2]: 21,785
- Curve Hill Slope (h) [2]: 1.2
- Kd ([2]; apparent Kd): 2.27 nM
B1: v29456: humanized anti-NaPi2b IgG1/kappa antibody H1L2; VH SEQ ID NO:24, VL SEQ ID NO:29 (antibody, V domains shown)
VH: QVQLVQSGAEVKKPGASVKVSCKASGFTFTSYNVHWVRQAPGQGLEWMGAISPGNGDLSYAQKFQGRVTMTRDTSTSTVYMELSSLRSEDTAVYYCARGRTGMGAVDYWGQGTLVTVSS
VL: DVQMTQSPSSLSASVGDRVTITCRASQDVYSYLNWYQQKPGKAVKLLIYYTSRLQSGVPSRFSGSGSGTDYTLTISSLQPEDFATYYCQQYNIFPWTFGQGTKLEIK
modifications: v29452, v29456, v29460 VH (H1); v29453, v29454, v29455, v29456 VL (L2)

— patent US20250277030A1, “ANTI-NAPI2B ANTIBODIES AND METHODS OF USE” (Zymeworks BC Inc., priority 2022, published 2025)
